From patent publication US20220041691A1, “METHODS FOR DIAGNOSING OR TREATING POST-TRAUMATIC STRESS DISORDER, AND COMPOSITIONS THEREFOR” (Centre for Addiction and Mental Health, priority 2018, published 2022) come the findings set out here.

For one test, the target named is T1, FKBP51 (Mus musculus, UniProt Q64378).
T1 construct: from tissue; host or cells: mouse brain
T1 sequence (Q64378 1-456): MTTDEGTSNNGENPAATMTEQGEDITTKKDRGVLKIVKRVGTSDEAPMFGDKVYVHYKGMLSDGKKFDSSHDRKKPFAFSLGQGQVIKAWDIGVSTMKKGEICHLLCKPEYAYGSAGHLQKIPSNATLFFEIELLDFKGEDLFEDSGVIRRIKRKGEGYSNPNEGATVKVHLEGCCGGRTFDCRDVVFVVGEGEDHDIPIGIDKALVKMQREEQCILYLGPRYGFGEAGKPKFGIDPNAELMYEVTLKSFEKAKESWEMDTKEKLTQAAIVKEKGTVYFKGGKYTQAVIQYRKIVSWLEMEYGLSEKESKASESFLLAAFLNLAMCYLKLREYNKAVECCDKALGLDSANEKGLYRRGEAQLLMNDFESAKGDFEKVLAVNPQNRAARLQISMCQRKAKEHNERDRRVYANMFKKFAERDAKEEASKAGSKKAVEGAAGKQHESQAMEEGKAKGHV
As to the kind of experiment: GST pull-down of FKBP51 by GST-GR fragments in mouse brain tissue. Format: binding. From the text: The present inventors identified that if increased GR-FKBP51 complex levels are part of the pathophysiology of PTSD, then disrupting the complex may rescue behaviors related to PTSD. To develop an agent (in this example, a peptide-based agent) capable of blocking the GR-FKBP51 interaction, experiments were first performed to identify the regions of the GR that are important to bind FKBP51 (and vice versa). Initially, GST-fusion proteins were used encoding the amino-terminus (NT) of GR (GRNT) and the carboxyl-terminus (CT) of GR (GRCT) for affinity purification. […] Extending this strategy, GRNT fragments were examined (see FIG. 8, where the 6 tested GRNT fragments, NT-1, NT-2, NT-3, NT-4, NT-5, and NT-6 are shown). […] Similarly, it was determined that the TPR (tetratricopeptide repeat) domains of FKBP51 bind GR (FIG. 2D). In these studies, GST-fusion proteins of 3 different portions of the FKBP51 protein were prepared (FK1, FK2, and TPR, see FIG. 9) and tested. The TPR fragment was identified as containing the relevant interaction region.
GST-fusion proteins encoding truncated GR fragments were amplified by PCR from full-length human cDNA clones. All constructs were sequenced to confirm the absence of PCR-generated errors. GST-fusion proteins were prepared from bacterial lysates with glutathione sepharose 4B beads as instructed by the manufacturer (Amersham).^25 To construct GST-fusion proteins encoding truncated GR, cDNA fragments were amplified by using PCR with specific primers. 5′ and 3′ oligonucleotides incorporated with specific restriction enzyme sites were used to facilitate sub-cloning into the pGEX-4T3 vector. To confirm appropriate splice fusion and correct nucleotide sequences, all constructs were re-sequenced.

In a further test the target is T2, FKBP51-TPR (Homo sapiens, UniProt Q13451).
T2 construct: made in house; host or cells: bacteria
T2 sequence (Q13451 258-457): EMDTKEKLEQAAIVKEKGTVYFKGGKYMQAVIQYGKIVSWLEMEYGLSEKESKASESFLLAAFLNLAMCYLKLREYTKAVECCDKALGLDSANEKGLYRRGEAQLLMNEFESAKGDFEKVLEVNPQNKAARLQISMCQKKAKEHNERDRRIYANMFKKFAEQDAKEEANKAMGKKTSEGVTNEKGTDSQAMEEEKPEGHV
As to the kind of experiment: Surface plasmon resonance, binding of FKBP51 TPR domain to GR and its phosphorylation mutants. As to conditions: Flag-tagged GR immobilized on sensor chip, 25° C. Here is the method:
The binding of FKBP51 TPR domain to GR and its phosphorylation mutants was determined by surface plasmon resonance using a Reichert SR7500DC instrument. Experiments were conducted at 25° C. with 2000 RU HEK293 expressed FLAG-tagged GR bound onto a FLAG antibody-coated Dextran 50,000 Da chip. Running buffer (PBS, pH 7.4 with 0.005% Tween 20) was used with a flow rate of 25 μl/min. With association time of 300s and dissociation of 240s, binding signals were determined by injecting various concentrations of the GST-FKBP51_TPR.
Background: SPR reads the build-up and loss of mass on a sensor chip optically.

The target in test [1] is T3, glucocorticoid receptor (GR), endogenous, mouse brain / mouse lymphocyte lysate (mouse, UniProt P06537 1-792, limits assumed).
T3 construct: Endogenous protein in tissue lysate; other cellular proteins are present in the co-IP and pull-down experiments; also called mouse GR
T3 sequence (looked up): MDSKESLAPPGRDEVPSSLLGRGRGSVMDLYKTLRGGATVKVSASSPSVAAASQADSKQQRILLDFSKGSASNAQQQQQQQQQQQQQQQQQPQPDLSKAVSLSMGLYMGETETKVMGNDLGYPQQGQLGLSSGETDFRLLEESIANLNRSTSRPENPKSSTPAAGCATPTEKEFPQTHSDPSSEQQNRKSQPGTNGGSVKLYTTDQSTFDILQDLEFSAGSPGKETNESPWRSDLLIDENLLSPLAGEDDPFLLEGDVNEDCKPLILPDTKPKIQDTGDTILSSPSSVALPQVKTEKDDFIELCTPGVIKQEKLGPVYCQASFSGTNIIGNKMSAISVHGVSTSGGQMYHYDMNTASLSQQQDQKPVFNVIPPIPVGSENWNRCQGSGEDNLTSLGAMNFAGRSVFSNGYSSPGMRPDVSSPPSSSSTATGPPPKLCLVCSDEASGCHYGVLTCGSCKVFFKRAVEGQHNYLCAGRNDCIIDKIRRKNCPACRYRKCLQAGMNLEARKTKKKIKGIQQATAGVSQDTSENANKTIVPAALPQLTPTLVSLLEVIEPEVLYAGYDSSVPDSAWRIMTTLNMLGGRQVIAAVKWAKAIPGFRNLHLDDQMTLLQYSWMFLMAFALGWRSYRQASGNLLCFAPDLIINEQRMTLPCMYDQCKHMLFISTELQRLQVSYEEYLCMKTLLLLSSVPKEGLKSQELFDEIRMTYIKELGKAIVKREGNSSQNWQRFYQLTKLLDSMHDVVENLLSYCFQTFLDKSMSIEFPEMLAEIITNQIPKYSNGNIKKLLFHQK
As to the kind of experiment: GST pull-down from mouse brain tissue, Western blot. A general note: Immunoblotting shows a protein as a band on a membrane.

The target in test [2] is T4, FK506 Binding Protein 51 (FKBP51), endogenous, mouse brain / mouse lymphocyte lysate (mouse, UniProt Q64378 1-456).
T4 construct: Endogenous protein in tissue lysate; also called mouse FKBP51
T4 sequence (looked up): T1 sequence (Q64378 1-456)
Described as above.

Entries after “also recorded” stand apart in the source; their conditions may differ. Like-named read-outs stand apart in the source and are kept apart here. Ends that are not written are not given here.

With “GST-GRNT4-1: GST-fusion protein of GR fragment SPWRSDLLIDENCLL (S211-L225) (also: GST fusion protein)”, the “pull-down (precipitation) of FKBP51 by GST-GR fragment, Western blot” value (from here on “pull-down (precipitation) of FKBP51”) with FKBP51 is on record as “can “pull-down””. On to “WT GR: Flag-tagged wild-type glucocorticoid receptor expressed in HEK293”, for which the equilibrium dissociation constant (Kd) was 3.31 µM with FKBP51-TPR (figure legend values, read-out: KD for binding FKBP51-TPR (SPR)) and 3.31 ± 0.04 µM with FKBP51-TPR (read-out: KD for binding FKBP51 (SPR)).

B1: GST-FK1 (other)
chain: MTTDEGAKNNEESPTATVAEQGEDITSKKDRGVLKIVKRVGNGEETPMIGDKVYVHYKGKLSNGKKFDSSHDRNEPFVFSLGKGQVIKAWDIGVATMKKGEICHLLCKPEYAYGSAGSLPKIPSNATLFFEIELLDFKGEDLF
notes: also called FKBP51FK1; not shown: glutathione S-transferase (GST) tag; vector stated only for the GR fragments (pGEX-4T3)
Take B1: the binding result in test [1] is reported as “no binding”.

B2: GST-GRNT: GST-fusion protein encoding the amino-terminus of GR (protein)
chain: MDSKESLTPGREENPSSVLAQERGDVMDFYKTLRGGATVKVSASSPSLAVASQSDSKQRRLLVDFPKGSVSNAQQPDLSKAVSLSMGLYMGETETKVMGNDLGFPQQGQISLSSGETDLKLLEESIANLNRSTSVPENPKSSASTAVSAAPTEKEFPKTHSDVSSEQQHLKGQTGTNGGNVKLYTTDQSTFDILQDLEFSSGSPGKETNESPWRSDLLIDENCLLSPLAGEDDSFLLEGNSNEDCKPLILPDTKPKIKDNGDLVLSSPSNVTLPQVKTEKEDFIELCTPGVIKQEKLGTVYCQASFPGANIIGNKMSAISVHGVSTSGGQMYHYDMNTASLSQQQDQKPIFNVIPPIPVGSENWNRCQGSGDDNLTSLGTLNFPGRTVFSNGYSSPSMRPDVSSPPSSSSTATTGPPPKL
modifications: left off: a dimerising Fc or GST
notes: GST-fusion protein encoding the amino-terminus of GR
On to B2, for which, in the test with FKBP51, the “pull-down (precipitation) of FKBP51” value is listed as “can “pull-down”; also recorded: precipitated FKBP51”.

B3: GST-GRNT5 (other)
chain: EDFIELCTPGVIKQEKLGTVYCQASFPGANIIGNKMSAISVHGVSTSGGQMYHYDMNTASLSQQQDQKPI
notes: not shown: glutathione S-transferase (GST) tag from the pGEX-4T3 vector
Consider B3, for which the binding result in test [2] is recorded as “no binding”.

B4: GST-GRNT6 (other)
chain: FNVIPPIPVGSENWNRCQGSGDDNLTSLGTLNFPGRTVFSNGYSSPSMRPDVSSPPSSSSTATTGPPPKL
notes: as for B3
Turning to B4, in test [2], the binding result is listed as “no binding”.

B5: GST-FK2 (other)
chain: EDGGIIRRTKRKGEGYSNPNEGATVEIHLEGRCGGRMFDCRDVAFTVGEGEDHDIPIGIDKALEKMQREEQCILYLGPRYGFGEAGKPKFGIEPNAELIYEVTLKSFEKAKESW
notes: also called FKBP51FK2; not shown: glutathione S-transferase (GST) tag; vector stated only for the GR fragments (pGEX-4T3)
In the case of B5, the binding result in test [1] is “no binding”.

B6: GST-GRNT4: GST-fusion protein of GRNT fragment 4 (protein)
chain: SPWRSDLLIDENCLLSPLAGEDDSFLLEGNSNEDCKPLILPDTKPKIKDNGDLVLSSPSNVTLPQVKTEK
modifications: also: GST fusion protein
Regarding B6, the “pull-down (precipitation) of FKBP51” value was “can “pull-down”” with FKBP51 and “best precipitation of FKBP51” with FKBP51 (listed as NT-4).

B7: GST-GRNT2 (other)
chain: SNAQQPDLSKAVSLSMGLYMGETETKVMGNDLGFPQQGQISLSSGETDLKLLEESIANLNRSTSVPENPK
notes: as for B3
Consider B7, for which the binding result in test [2] was “no binding”.

B8: GST-TPR1 (other)
chain: EMDTKEKLEQAAIVKEKGTVYFKGGKYMQAVIQYGKIVSWLEMEYGLSEK
modifications: also: GST tag fusion, linker not given here
notes: also called FKBP51TPR-1; not shown: glutathione S-transferase (GST) tag; vector stated only for the GR fragments (pGEX-4T3)
In the case of B8, the binding result in test [1] is reported as “no binding”.

B9: GST-TPR4 (other)
chain: IYANMFKKFAEQDAKEEANKAMGKKTSEGVTNEKGTDSQAMEEEKPEGHV
modifications: also: GST tag fusion, linker not given here
notes: also called FKBP51TPR-4; not shown: glutathione S-transferase (GST) tag; vector stated only for the GR fragments (pGEX-4T3)
Consider B9, for which the binding result in test [1] was “no binding”.

B10: GST-TPR2 (other)
chain: ESKASESFLLAAFLNLAMCYLKLREYTKAVECCDKALGLDSANEKGLYRR
modifications: cysteine pairing not given here; also: GST tag fusion, linker not given here
notes: also called FKBP51TPR-2; not shown: glutathione S-transferase (GST) tag; vector stated only for the GR fragments (pGEX-4T3)
Take B10: in test [1], the binding result is reported as “no binding”.

B11: GST-GRCT (GST fusion of the carboxyl-terminus of GR) (other)
chain: CLVCSDEASGCHYGVLTCGSCKVFFKRAVEGQHNYLCAGRNDCIIDKIRRKNCPACRYRKCLQAGMNLEARKTKKKIKGIQQATTGVSQETSENPGNKTIVPATLPQLTPTLVSLLEVIEPEVLYAGYDSSVPDSTWRIMTTLNMLGGRQVIAAVKWAKAIPGFRNLHLDDQMTLLQYSWMFLMAFALGWRSYRQSSANLLCFAPDLIINEQRMTLPCMYDQCKHMLYVSSELHRLQVSYEEYLCMKTLLLLSSVPKDGLKSQELFDEIRMTYIKELGKAIVKREGNSSQNWQRFYQLTKLLDSMHEVVENLLNYCFQTFLDKTMSIEFPEMLAEIITNQIPKYSNGNIKKLLFHQK
notes: as for B3
On to B11, for which the binding result in test [2] is given as “no binding”.

B12: GST-GRNT1 (other)
chain: MDSKESLTPGREENPSSVLAQERGDVMDFYKTLRGGATVKVSASSPSLAVASQSDSKQRRLLVDFPKGSV
notes: as for B3
Consider B12, for which the binding result in test [2] is reported as “no binding”.

B13: GST-GRNT3 (other)
chain: SSASTAVSAAPTEKEFPKTHSDVSSEQQHLKGQTGTNGGNVKLYTTDQSTFDILQDLEFSSGSPGKETNE
notes: as for B3
B13: the binding result in test [2] is “no binding”.

One may read the Kd as the equilibrium constant for the complex coming apart.
